Drawing on the Human Domainome abundance scans (Beltran et al. 2025), this text covers abundance fitness for 44 variants.

± gives the uncertainty stated by the source.

To fix the notation:
B1: Kinesin-like protein KIF16B, residues 1213 to 1273; numbered along this chain, Q96L93 (parent)
chain: ETWTVFRRYSRFREMHKTLKLKYAELAALEFPPKKLFGNKDERVIAERRSHLEKYLRDFFS

The data set covers variants of B1. The data set can be described thus: abundance fitness (aPCA) (normalised: wild type 0, dead -1); higher = more abundant; growth selection in yeast, the domain comes from the species named. To be noted: Homo sapiens.
For the variant ETWTVFRRYSRCREMHKTLKLKYAELAALEFPPKKLFGNKDERVIAERRSHLEKYLRDFFS [F12C], the abundance fitness is -0.164 ± 0.11.

For the variant ETWTVFRRYSREREMHKTLKLKYAELAALEFPPKKLFGNKDERVIAERRSHLEKYLRDFFS [F12E], the abundance fitness is -0.941 ± 0.23. The same measure for ETWTVFRRYSRKREMHKTLKLKYAELAALEFPPKKLFGNKDERVIAERRSHLEKYLRDFFS [F12K]: -1.08 ± 0.25. With ETWTVFRRYSRWREMHKTLKLKYAELAALEFPPKKLFGNKDERVIAERRSHLEKYLRDFFS [F12W], the abundance fitness is 0.017 ± 0.075. Then ETWTVFRRYSRYREMHKTLKLKYAELAALEFPPKKLFGNKDERVIAERRSHLEKYLRDFFS [F12Y], with -0.469 ± 0.17; and ETWTVFRRYSRAREMHKTLKLKYAELAALEFPPKKLFGNKDERVIAERRSHLEKYLRDFFS [F12A], with -0.271 ± 0.12; and ETWTVFRRYSRRREMHKTLKLKYAELAALEFPPKKLFGNKDERVIAERRSHLEKYLRDFFS [F12R], with -0.921 ± 0.13. Then ETWTVFRRYSRMREMHKTLKLKYAELAALEFPPKKLFGNKDERVIAERRSHLEKYLRDFFS [F12M], with -0.103 ± 0.14; and ETWTVFRRYRRFREMHKTLKLKYAELAALEFPPKKLFGNKDERVIAERRSHLEKYLRDFFS [S10R], with -0.395 ± 0.081. Then ETWTVFRRYYRFREMHKTLKLKYAELAALEFPPKKLFGNKDERVIAERRSHLEKYLRDFFS [S10Y], with -0.567 ± 0.13. For ETWTVFRRYVRFREMHKTLKLKYAELAALEFPPKKLFGNKDERVIAERRSHLEKYLRDFFS [S10V], the abundance fitness was -0.167 ± 0.06. Turning to ETWTVFRRYWRFREMHKTLKLKYAELAALEFPPKKLFGNKDERVIAERRSHLEKYLRDFFS [S10W], the abundance fitness is -0.018 ± 0.061. The same measure for ETWTVFRRYTRFREMHKTLKLKYAELAALEFPPKKLFGNKDERVIAERRSHLEKYLRDFFS [S10T]: 0.136 ± 0.069; for ETWTVFRRYSRFVEMHKTLKLKYAELAALEFPPKKLFGNKDERVIAERRSHLEKYLRDFFS [R13V]: -0.443 ± 0.073; for ETWTVFRRYSRFDEMHKTLKLKYAELAALEFPPKKLFGNKDERVIAERRSHLEKYLRDFFS [R13D]: 0.391 ± 0.15. Then ETWTVFRRYSRFAEMHKTLKLKYAELAALEFPPKKLFGNKDERVIAERRSHLEKYLRDFFS [R13A], with 0.096 ± 0.1; and ETWTVFRRYSRFEEMHKTLKLKYAELAALEFPPKKLFGNKDERVIAERRSHLEKYLRDFFS [R13E], with -0.354 ± 0.1; and ETWTVFRRYSRFKEMHKTLKLKYAELAALEFPPKKLFGNKDERVIAERRSHLEKYLRDFFS [R13K], with 0.1 ± 0.079.

Take ETWTVFRRYSRFQEMHKTLKLKYAELAALEFPPKKLFGNKDERVIAERRSHLEKYLRDFFS [R13Q]: the abundance fitness was -0.398 ± 0.16. Then ETWTVFRRYSRFYEMHKTLKLKYAELAALEFPPKKLFGNKDERVIAERRSHLEKYLRDFFS [R13Y], with -0.079 ± 0.25. The same measure for ETWTVFRRYSRFGEMHKTLKLKYAELAALEFPPKKLFGNKDERVIAERRSHLEKYLRDFFS [R13G]: 0.023 ± 0.04. Then ETWTVFRRYSRFSEMHKTLKLKYAELAALEFPPKKLFGNKDERVIAERRSHLEKYLRDFFS [R13S], with -0.137 ± 0.083.

ETWTVFRRYSRFWEMHKTLKLKYAELAALEFPPKKLFGNKDERVIAERRSHLEKYLRDFFS [R13W]: the abundance fitness was -0.213 ± 0.072.

As for ETWTVFRRYSRFLEMHKTLKLKYAELAALEFPPKKLFGNKDERVIAERRSHLEKYLRDFFS [R13L], the abundance fitness was -0.108 ± 0.12. The same measure for ETWTVFRRYSRFTEMHKTLKLKYAELAALEFPPKKLFGNKDERVIAERRSHLEKYLRDFFS [R13T]: -0.056 ± 0.065; for ETWTVFRRYSRFCEMHKTLKLKYAELAALEFPPKKLFGNKDERVIAERRSHLEKYLRDFFS [R13C]: -0.333 ± 0.18.

Take ETWTVFRRYSRFNEMHKTLKLKYAELAALEFPPKKLFGNKDERVIAERRSHLEKYLRDFFS [R13N]: the abundance fitness is -0.265 ± 0.21. Then ETWTVFRRYSRFMEMHKTLKLKYAELAALEFPPKKLFGNKDERVIAERRSHLEKYLRDFFS [R13M], with -0.153 ± 0.37. Consider ETWTVFRRYSRFRPMHKTLKLKYAELAALEFPPKKLFGNKDERVIAERRSHLEKYLRDFFS [E14P], for which the abundance fitness was -0.589 ± 0.25. Then ETWTVFRRYSRFRVMHKTLKLKYAELAALEFPPKKLFGNKDERVIAERRSHLEKYLRDFFS [E14V], with -0.299 ± 0.066.

Consider ETWTVFRRYSRFRMMHKTLKLKYAELAALEFPPKKLFGNKDERVIAERRSHLEKYLRDFFS [E14M], for which the abundance fitness is -0.41 ± 0.092.

As to ETWTVFRRYSRFRGMHKTLKLKYAELAALEFPPKKLFGNKDERVIAERRSHLEKYLRDFFS [E14G], the abundance fitness was -0.183 ± 0.063.

Turning to ETWTVFRRYSRFRCMHKTLKLKYAELAALEFPPKKLFGNKDERVIAERRSHLEKYLRDFFS [E14C], the abundance fitness was -0.319 ± 0.2. Then ETWTVFRRYSRFRDMHKTLKLKYAELAALEFPPKKLFGNKDERVIAERRSHLEKYLRDFFS [E14D], with -0.159 ± 0.18. Then ETWTVFRRYSRFRIMHKTLKLKYAELAALEFPPKKLFGNKDERVIAERRSHLEKYLRDFFS [E14I], with -0.867 ± 0.22. The same measure for ETWTVFRRYSRFRFMHKTLKLKYAELAALEFPPKKLFGNKDERVIAERRSHLEKYLRDFFS [E14F]: -0.433 ± 0.22; for ETWTVFRRYSRFRQMHKTLKLKYAELAALEFPPKKLFGNKDERVIAERRSHLEKYLRDFFS [E14Q]: -0.534 ± 0.14. With ETWTVFRRYSRFRAMHKTLKLKYAELAALEFPPKKLFGNKDERVIAERRSHLEKYLRDFFS [E14A], the abundance fitness is -0.318 ± 0.097. Then ETWTVFRRYSRFRWMHKTLKLKYAELAALEFPPKKLFGNKDERVIAERRSHLEKYLRDFFS [E14W], with -0.69 ± 0.094; and ETWTVFRRYSRFRHMHKTLKLKYAELAALEFPPKKLFGNKDERVIAERRSHLEKYLRDFFS [E14H], with 0.13 ± 0.19; and ETWTVFRRYSRFRNMHKTLKLKYAELAALEFPPKKLFGNKDERVIAERRSHLEKYLRDFFS [E14N], with -0.556 ± 0.15. The same measure for ETWTVFRRYSRFRTMHKTLKLKYAELAALEFPPKKLFGNKDERVIAERRSHLEKYLRDFFS [E14T]: -0.597 ± 0.22; for ETWTVFRRYSRFRSMHKTLKLKYAELAALEFPPKKLFGNKDERVIAERRSHLEKYLRDFFS [E14S]: -0.229 ± 0.064; for ETWTVFRRYSRFRLMHKTLKLKYAELAALEFPPKKLFGNKDERVIAERRSHLEKYLRDFFS [E14L]: -0.429 ± 0.07.
